Assay [1] deals with T1, human HHLA2 expressed on transfected cells (300.19 mouse pre-B cells; CHO cells) (human, UniProt Q9UM44 23-414).
T1 construct: also called B7-H7; B7H7
T1 sequence: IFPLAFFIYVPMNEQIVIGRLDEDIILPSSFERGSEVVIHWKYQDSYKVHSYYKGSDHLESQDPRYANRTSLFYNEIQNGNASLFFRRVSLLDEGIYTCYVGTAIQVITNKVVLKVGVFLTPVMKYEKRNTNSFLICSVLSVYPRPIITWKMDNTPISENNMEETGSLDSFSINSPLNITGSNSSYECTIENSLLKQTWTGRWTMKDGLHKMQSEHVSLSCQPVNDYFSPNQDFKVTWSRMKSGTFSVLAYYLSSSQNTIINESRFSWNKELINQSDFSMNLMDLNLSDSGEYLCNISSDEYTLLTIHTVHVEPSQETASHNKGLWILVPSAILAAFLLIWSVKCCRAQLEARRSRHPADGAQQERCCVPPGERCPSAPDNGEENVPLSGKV
Description: flow cytometry, mAb titrated on HHLA2-transfected 300.19 pre-B cells, PE goat anti-mouse IgG. How it is done: (§1) HHLA2 mAb cell binding and receptor blockade experiments were then performed. […] HHLA2 mAb binding to transfected 300.19 cells was detected with PE-labeled goat anti-mouse IgG (H+L). For HHLA2 mAb blocking experiments different concentration of HHLA2 mAbs were pre-incubated with 4 ug/ml of HHLA2-mIgG2a at a 1:1 ratio for 30 minutes and added to either TMIGD2 or KIR3DL3 transfected 293T cells and incubated for 30 minutes at 4° C. HHLA2-mIgG2a binding to TMIGD2 or KIR3DL3 transfected 293T cells was detected with a PE labeled Fab2 goat anti-mIgG2a antibody. EC50 and IC50 analyses were conducted using Graph Pad Prism. It was shown that HHLA2 mAb clone 2C4 has desired properties of complete KIR3DL3 blockade and partial TMIGD2 blockade (Table 6).

In assay [2] the target is T2, human HHLA2-mIgG2a fusion protein (human; mouse, UniProt Q9UM44 23-344, limits assumed).
T2 construct: also called hHHLA2-mIgG2a; HHLA2-Fc
T2 sequence: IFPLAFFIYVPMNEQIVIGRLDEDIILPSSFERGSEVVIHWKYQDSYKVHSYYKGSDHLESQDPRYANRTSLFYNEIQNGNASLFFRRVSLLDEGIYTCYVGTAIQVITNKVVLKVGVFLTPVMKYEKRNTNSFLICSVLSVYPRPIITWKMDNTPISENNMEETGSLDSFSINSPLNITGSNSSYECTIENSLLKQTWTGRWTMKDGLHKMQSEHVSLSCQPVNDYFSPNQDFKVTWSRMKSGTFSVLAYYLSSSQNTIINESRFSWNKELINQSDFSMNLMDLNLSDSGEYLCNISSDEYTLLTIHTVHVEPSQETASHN
Description: flow cytometry, mAb pre-incubated with 4 ug/ml HHLA2-mIgG2a; blockade of its binding to TMIGD2-transfected 293T cells. How it is done: as §1

The target in assay [3] is T2, human HHLA2-mIgG2a fusion protein. In words: flow cytometry, mAb pre-incubated with 4 ug/ml HHLA2-mIgG2a; blockade of its binding to KIR3DL3-transfected 293T cells. How it is done:
as §1
(Flow cytometry measures light scatter and fluorescence of single cells or particles in a stream.)

In assay [4] the target is T1, human HHLA2 expressed on transfected …. Description: flow cytometry, mAb on HHLA2-transfected 300.19 mouse pre-B cells.
For assay [5], the target named is T2, human HHLA2-mIgG2a fusion protein. Description: cell microarray, HHLA2-mIgG2a on fixed transfected HEK293 cells, AF647 anti-mouse IgG detection. How it is done:
Human HHLA2-mIgG2a fusion protein was added to slides of fixed, transfected HEK293 cell slides at a 20 ug/ml concentration, and the protein was detected with an AF647 labeled anti-mouse IgG detection antibody. Two replicate slides were screened for each of the 13 slide sets. Fluorescent images were analyzed and quantitated (for transfection efficiency) using ImageQuant software (GE). A protein ‘hit’ was defined as duplicate spots showing a raised signal compared to background levels. This was achieved by visual inspection using the images gridded on the ImageQuant software.
Addition of the AF647 labeled anti-mouse IgG detection antibody alone in the absence of HHLA2-mIgG2a produced no signal. The selectivity of HHLA2 binding to KIR3DL3 was evaluated using a panel of 14 KIR receptors arrayed on slides.

Consider 9 molecules from US20210115144A1 (Dana-Farber, published 2021).

A word on the EC50: it is the concentration that produces a half-maximal response. One may read the IC50 as the point on the concentration scale where inhibition reaches its midpoint. A high value points to lower potency.

B1: anti-HHLA2 monoclonal antibody 6D10 (antibody, IgG1, V domains shown)
VH: EVQLVETGGGLVQPKGSLKLSCAASGFTFNTNVMNWVRQAPGKGLEWVARIRTKTNNYATYYADSVKDRFTIFRDDSQSILYLQMNNLKTEDTAMYYCVGAMDYWGQGTSVTVSS
VL: DIVLTQSPASLAVSLGQRATISCRASESVDNYGISFMHWYQQKPGQPPKLLIYRASNLKSGIPARFSGSGSRTDFTLTINPVETGDVATYYCQQSSKDPPTFGTGTKLELK
notes: also called 6DI0; 499.5.6D10.11.11.7
Regarding B1, the EC50 in assay [1] and in assay [4] was 22.5 µg/mL each time. The IC50 in assay [2] amounted to 11.7 µg/mL; in assay [3], 7 µg/mL.

B2: anti-HHLA2 monoclonal antibody 2G2 (antibody, IgG1, V domains shown)
VH: EVMLVESGGGLVKPGGSLKLSCAVSGLTFSSYAMSWVRQTPEKRLEWVATISSGGSHTYYPDSVKGRFIISRDNAKNTLYLQMNSLRSEDTAMYYCTRLGRAFDYWGQGTTLTVSS
VL: DIVMTQSHKFMSTSVGDRVSITCKASQDVSTAVAWYQQKPGQSPKVLIYWASTRHTGVPDRFTGSGSGTDFTLTISSVQAEDLALYYCQQDYSTPWTFGGGTKLEIK
notes: also called 499.5.2G2.13.3.10; MHC2561
Consider B2, for which the EC50 in assay [1] and in assay [4] was 0.21 µg/mL in each case. The figures for the IC50 in assay [2] and in assay [3] were 0.85 µg/mL and 0.53 µg/mL, respectively.

B3: KIR2DS2 (receptor, human, UniProt P43631 22-304, looked up)
chain: HEGVHRKPSLLAHPGPLVKSEETVILQCWSDVRFEHFLLHREGKYKDTLHLIGEHHDGVSKANFSIGPMMQDLAGTYRCYGSVTHSPYQLSAPSDPLDIVITGLYEKPSLSAQPGPTVLAGESVTLSCSSRSSYDMYHLSREGEAHERRFSAGPKVNGTFQADFPLGPATHGGTYRCFGSFRDSPYEWSNSSDPLLVSVTGNPSNSWPSPTEPSSKTGNPRHLHVLIGTSVVKIPFTILLFFLLHRWCSNKKNAAVMDQEPAGNRTVNSEDSDEQDHQEVSYA
notes: whole, on cells
With B3, the binding result in assay [5] is listed as “no binding (tested: 20 ug/ml)”.

B4: KIR2DS3 (receptor, human, UniProt Q14952 22-304, looked up)
chain: HEGFRRKPSLLAHPGRLVKSEETVILQCWSDVMFEHFLLHREGTFNDTLRLIGEHIDGVSKANFSIGRMRQDLAGTYRCYGSVPHSPYQFSAPSDPLDIVITGLYEKPSLSAQPGPTVLAGESVTLSCSSWSSYDMYHLSTEGEAHERRFSAGPKVNGTFQADFPLGPATQGGTYRCFGSFHDSPYEWSKSSDPLLVSVTGNPSNSWPSPTEPSSKTGNPRHLHVLIGTSVVKLPFTILLFFLLHRWCSDKKNASVMDQGPAGNRTVNREDSDEQDHQEVSYA
notes: whole, on cells
In the case of B4, the binding result in assay [5] is “no binding (tested: 20 ug/ml)”.

B5: anti-HHLA2 monoclonal antibody 4D1 (antibody, IgG1, V domains shown)
VH: QVQLQQSGAELVRPGVSVKISCKGSGYTFTDYAMHWVKQSHAKSLEWIGSISTYYGDTNYNQKFKGKATMTVDKSSSTAYMELARLTSEDSAIYYCARGNYDDWYFNVWGAGTTVTVSS
VL: DIQMTQSPSSLSASLGERVSLTCRASQDISGYLSWLQQKPDGTIKRLIYSTSTLDSGVPKRFSGSRSGSDYSLTISSLESEDFADYYCLQYASSPYTFGGGAKLEIK
notes: also called 499.5.4D1.5.16; MHC2563
Turning to B5, the EC50 in assay [1] and in assay [4] was 0.44 µg/mL in each case. The results for the half-inhibitory concentration (IC50) in assay [2] and in assay [3] were 0.56 µg/mL and 0.68 µg/mL, respectively.

B6: KIR2DS1 (receptor, human, UniProt Q14954 22-304, looked up)
chain: HEGVHRKPSLLAHPGRLVKSEETVILQCWSDVMFEHFLLHREGMFNDTLRLIGEHHDGVSKANFSISRMKQDLAGTYRCYGSVTHSPYQLSAPSDPLDIVIIGLYEKPSLSAQPGPTVLAGENVTLSCSSRSSYDMYHLSREGEAHERRLPAGTKVNGTFQANFPLGPATHGGTYRCFGSFRDSPYEWSKSSDPLLVSVTGNPSNSWPSPTEPSSETGNPRHLHVLIGTSVVKIPFTILLFFLLHRWCSDKKNAAVMDQEPAGNRTVNSEDSDEQDHQEVSYA
notes: whole, on cells
B6: the binding result in assay [5] is “no binding (tested: 20 ug/ml)”.

B7: KIR2DS5 (receptor, human, UniProt Q14953 22-304, looked up)
chain: HEGFRRKPSLLAHPGPLVKSEETVILQCWSDVMFEHFLLHREGTFNHTLRLIGEHIDGVSKGNFSIGRMTQDLAGTYRCYGSVTHSPYQLSAPSDPLDIVITGLYEKPSLSAQPGPTVLAGESVTLSCSSRSSYDMYHLSREGEAHERRLPAGPKVNRTFQADFPLDPATHGGTYRCFGSFRDSPYEWSKSSDPLLVSVTGNSSNSWPSPTEPSSETGNPRHLHVLIGTSVVKLPFTILLFFLLHRWCSNKKNASVMDQGPAGNRTVNREDSDEQDHQEVSYA
notes: whole, on cells
On to B7, for which the binding result in assay [5] is reported as “no binding (tested: 20 ug/ml)”.

B8: KIR2DL3 (receptor, human, UniProt P43628 22-341, looked up)
chain: HEGVHRKPSLLAHPGPLVKSEETVILQCWSDVRFQHFLLHREGKFKDTLHLIGEHHDGVSKANFSIGPMMQDLAGTYRCYGSVTHSPYQLSAPSDPLDIVITGLYEKPSLSAQPGPTVLAGESVTLSCSSRSSYDMYHLSREGEAHERRFSAGPKVNGTFQADFPLGPATHGGTYRCFGSFRDSPYEWSNSSDPLLVSVTGNPSNSWPSPTEPSSETGNPRHLHVLIGTSVVIILFILLLFFLLHRWCCNKKNAVVMDQEPAGNRTVNREDSDEQDPQEVTYAQLNHCVFTQRKITRPSQRPKTPPTDIIVYTELPNAEP
notes: whole, on cells
B8: in assay [5], the binding result is listed as “no binding (tested: 20 ug/ml)”.

B9: anti-HHLA2 monoclonal antibody 1C8 (antibody, IgG2a, V domains shown)
VH: EVQLQQSGAELVQPGASVKLSCTASGFNIKDTYMHWVKQRPEQGLEWIGRIDPANGKTIFDPKFQVKATITADTSSNTVYLHLSSLTSEDTAIYYCAWLLPYYFDYWGQGTTLTVSS
VL: EIVLTQSPAVMAASPGEKVTITCSVSSSISSSNLHWYQQKSGTSPKLWIYGTSNLASGVPVRFSGSGSGTSYSLTISSMEAEDAATYYCQKWSHYPLTFGAGTKLELK
notes: also called 499.5.1C8.9.12.2; MHC2564
Turning to B9, the 50% effective concentration (EC50) in assay [1] and in assay [4] was 0.63 µg/mL each time. Besides, the IC50 in assay [2] was determined as 1.65 µg/mL; in assay [3], 1.15 µg/mL.
